From patent US20250075192

Target: T1, Wild type RepD from Staphylococcus aureus, as oriD DNA-RepD adduct
T1 chain: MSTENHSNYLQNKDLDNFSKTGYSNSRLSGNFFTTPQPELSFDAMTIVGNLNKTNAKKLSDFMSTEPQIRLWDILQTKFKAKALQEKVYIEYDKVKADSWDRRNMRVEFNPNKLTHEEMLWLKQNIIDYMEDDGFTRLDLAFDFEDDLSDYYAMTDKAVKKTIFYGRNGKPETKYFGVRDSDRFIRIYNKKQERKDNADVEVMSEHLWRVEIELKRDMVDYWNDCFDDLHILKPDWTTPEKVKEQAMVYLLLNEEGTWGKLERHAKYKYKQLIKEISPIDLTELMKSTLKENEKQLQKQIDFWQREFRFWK

B1: PcrA-DM1, a double cysteine mutant of PcrA, stochastically labeled with a mixture of donor and acceptor fluorophores (protein)
chain: MNFLSEQLLAHLNKEQQEAVRTTEGPLLIMAGAGSGKTRVLTHRIAYLMAEKHVAPWNILAITFTNKAAREMRERVQSLLGGAAEDVWISTFHSMAVRILRRDIDRIGINRNFSILDPTDQLSVMKTILKEKNIDPKKFEPRTILGTISAAKNELLPPEQFAKRASTYYEKVVSDVYQEYQQRLLRCHSLDFDDLIMTTIQLFDRVPDVLHYYQYKFQYIHIDEYQDTNRAQYTLVKKLAERFQNIAAVGDADQSIYRWRGADIQNILSFERDYPNAKVILLEQNYRSTKRILQAANEVIEHNVNRKPKRIWTENPEGKPILYYEAMNEADEAQFVAGRIREAVERGERRYRDFAVLYRTNAQSRVMEEMLLKANIPYQIVGGLKFYDRKEIKDILAYLRVIANPDDDCSLLRIINVPKRGIGASTIDKLVRYAADHELSLFEALGELEMIGLGAKAAGALAAFRSQLEQWTQLQEYVSVTELVEEVLDKSGYREMLKAERTIEAQSRLENLDEFLSVTKHFENVSDDKSLIAFLTDLALISDLDELDGTEQAAEGDAVMLMTLHAAKGLEFPVVFLIGMEEGIFPHNRSLEDDDEMEEERRLAYVGITRAEEELVLTSAQMRTLFGNIQMDPPSRFLNEIPAHLLETASRRQAGASRPAVSRPQASGAVGSWKVGDRANHRKWGIGTVVSVRGGGDDQELDIAFPSPIGIKRLLAKFAPIEKV
EFRET distribution of dual labeled PcrA-DM1 (smFRET, intramolecular conformation of PcrA): the presence of RepD indeed biases PcrA toward the closed high EFRET conformation
